Reference: paper PMC9457330 (Proceedings of the National Academy of Sciences of the …, 2022)

Molecular target: the molecule itself
Test: native gel or EMSA

B1: SLC25A11 (endogenous, mouse) (natural protein, UniProt Q9CR62 1-314, looked up)
chain: MAATASPGAGRMDGKPRTSPKSVKFLFGGLAGMGATVFVQPLDLVKNRMQLSGEGAKTREYKTSFHALTSILKTEGLKGIYTGLSAGLLRQATYTTTRLGIYTVLFERLTGADGTPPGFLLKALIGMTAGATGAFVGTPAEVALIRMTADGRLPADQRRGYKNVFNALVRIAREEGVPTLWRGCIPTMARAVVVNAAQLASYSQSKQFLLDSGYFSDNILCHFCASMISGLVTTAASMPVDIVKTRIQNMRMIDGKPEYKNGLDVLLKVVRYEGFFSLWKGFTPYYARLGPHTVLTFIFLEQMNKAYKRLFLSG
With B1 the “stoichiometry N” value was 2.
